The substances below were run against beta-klotho (assay: cell-based or functional assay).

EC50 (ELK-luciferase assay)	Efficacy (ELK-luciferase assay)	Substance
834 nM	83.1%	MKEDD.hFGF21.L15.hFc (Fc fusion)
167 nM	63.9%	hFc.L15.hFGF21(1-178, L98R, P171G) (Fc fusion)
2.5 nM	76.1%	hFc.L15.hFGF21(L98R, P171G) (Fc fusion)
7.8 nM	77.4%	hFc.L15.hFGF21(L98R, P171G, 1-179) (Fc fusion)
1.9 nM	79.6%	hFc.L15.hFGF21(L98R, P171G, A180E) (Fc fusion)
3.25 nM	76.9%	hFc.L15.hFGF21(L98R, P171G, A180G) (Fc fusion)
617 nM	77.1%	hFc.L15.hFGF21(L98R, P171G, A180P) (Fc fusion)
2.18 nM	84.7%	hFc.L15.hFGF21(L98R, P171G, A180S) (Fc fusion)
6.5 nM	71.1%	hFc.L15.hFGF21(L98R, P171G, G182) (Fc fusion)
1940 nM	84.2%	hFc.L15.hFGF21(L98R, P171G, GG182-3) (Fc fusion)
4310 nM	99.7%	hFc.L15.hFGF21(L98R, P171G, GGGGG182-6) (Fc fusion)
6.1 nM	85.9%	hFc.L15.hFGF21(L98R, P171G, P182) (Fc fusion)
2.66 nM	73.5%	hFc.L15.hFGF21(L98R, P171G, S181A) (Fc fusion)
3.43 nM	77.3%	hFc.L15.hFGF21(L98R, P171G, S181G) (Fc fusion)
130 nM	87.9%	hFc.L15.hFGF21(L98R, P171G, S181K) (Fc fusion)
3.46 nM	72.6%	hFc.L15.hFGF21(L98R, P171G, S181L) (Fc fusion)
33.8 nM	79.5%	hFc.L15.hFGF21(L98R, P171G, S181P) (Fc fusion)
272 nM	69.9%	hFc.L15.hFGF21(L98R, P171G, S181P, P182) (Fc fusion)
3.07 nM	77.6%	hFc.L15.hFGF21(L98R, P171G, S181T) (Fc fusion)
43.2 nM	79.6%	hFc.L15.hFGF21(L98R, P171G, Y179A) (Fc fusion)
2.6 nM	78.3%	hFc.L15.hFGF21(L98R, P171G, Y179F) (Fc fusion)
61 nM	82.6%	hFc.L15.hFGF21(L98R, P171G, Y179G) (Fc fusion)
428 nM	44.4%	hFc.L15.hFGF21(L98R, P171G, Y179P) (Fc fusion)
25.3 nM	74.8%	hFc.L15.hFGF21(L98R, P171G, Y179S) (Fc fusion)

Source: patent US20210317176A1
